Measured values taken from the supplement of paper PMC7125110.
± gives the standard error. For some assays here: Fewer inactive variants are shown than the library holds.

B1: glmS ribozyme (parent)
chain: AUAAAAGCGCCAGAACUACAGAAAUGUAGUUGACGAGGAGGAGGUUUAUCGAAUUUUCGGCGGAUGCCUCCAAA

How the values were obtained:
Conditions in all cases: with glucosamine-6-phosphate
[1] = variants of: B1; assay: kcat; higher = faster cleavage; RNA array
Outline: (§1)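 Weighted Michaelis–Menten fits across concentrations supplied kcat and KM, based on kobs from one- or two-exponential decay fits to normalised per-tile medians. The data came from barcoded ribozyme variants transcribed in situ by E. coli RNA polymerase on sequenced MiSeq chips and tracked at 37 °C by a hybridised Cy3 probe. Glucosamine-6-phosphate (40 μM to 10 mM) in HEPES/KCl/Mg(OAc)2 buffer was flowed in.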

[2] = variants of: B1; assay: self-cleavage kobs at 160 uM GlcN6P; higher = faster cleavage; RNA array
Outline: as §1

[3] = variants of: B1; assay: self-cleavage kobs at 640 uM GlcN6P; higher = faster cleavage; RNA array
Outline: as §1

[4] = variants of: B1; assay: self-cleavage kobs at 2500 uM GlcN6P; higher = faster cleavage; RNA array
Outline: as §1

[5] = variants of: B1; assay: self-cleavage kobs at 10000 uM GlcN6P; higher = faster cleavage; RNA array
Outline: as §1

[6] = variants of: B1; assay: self-cleavage kobs at 40 uM GlcN6P; higher = faster cleavage; RNA array
Outline: as §1

[7] = variants of: B1; assay: KM; higher = weaker cofactor use; RNA array
Outline: as §1

| Variant | kcat [1] [s⁻¹] | self-cleavage kobs at 160 uM GlcN6P [2] [s⁻¹] | self-cleavage kobs at 640 uM GlcN6P [3] [s⁻¹] | self-cleavage kobs at 2500 uM GlcN6P [4] [s⁻¹] | self-cleavage kobs at 10000 uM GlcN6P [5] [s⁻¹] | self-cleavage kobs at 40 uM GlcN6P [6] [s⁻¹] | KM [7] [µM] |
| --- | --- | --- | --- | --- | --- | --- | --- |
| C58A C70A | 4.48e-05 ± 1.6e-05 | 3.09e-05 ± 1.1e-05 | 5.32e-05 ± 1.4e-05 | 6.58e-05 ± 1.4e-05 | – | – | – |
| U65A C68G | 4.89e-05 ± 9e-06 | 8.12e-05 ± 1.8e-05 | 6.22e-05 ± 1e-05 | 4.97e-05 ± 1.2e-05 | 3.81e-05 ± 7.3e-06 | – | – |
| G59U U65G | < 1e-05 | – | < 1e-05 | – | – | – | – |
| C61A A64G | < 1e-05 | – | – | – | – | < 1e-05 | – |
| G66U C68A | 6.39e-05 ± 1.2e-05 | 3.61e-05 ± 1.6e-05 | 9.21e-05 ± 2.2e-05 | 5.77e-05 ± 8.7e-06 | – | – | – |
| G38U A39G | – | – | – | – | – | – | 2660 ± 1000 |
| A6U A48G | – | < 1e-05 | – | < 1e-05 | < 1e-05 | < 1e-05 | – |
| G66A C67G | 0.00418 ± 0.0021 | 0.000414 ± 5.4e-05 | 0.000703 ± 0.0001 | 0.00281 ± 0.00066 | 0.00412 ± 0.00067 | 0.000102 ± 1.4e-05 | – |
| G66A C67U | 0.00255 ± 0.00091 | 0.000398 ± 6.5e-05 | 0.00134 ± 0.0002 | 0.0016 ± 0.0003 | 0.00498 ± 0.00098 | 0.000173 ± 2.6e-05 | – |
| A6U G13C G63U A64G | – | – | – | – | – | < 1e-05 | – |
| C67G C70U | 0.000163 ± 2.9e-06 | – | 4.24e-05 ± 6e-06 | 9.79e-05 ± 8.3e-06 | 0.000137 ± 8.4e-06 | – | 1750 ± 88 |
| G7A A12U A52U | – | – | – | – | – | < 1e-05 | – |
| A6G A36C C71U | – | – | – | – | < 1e-05 | < 1e-05 | – |
| A6G G60A G62C | – | – | – | – | – | < 1e-05 | – |
| G7C G62U | – | – | – | < 1e-05 | < 1e-05 | < 1e-05 | – |
| U57A C68A | 2.64e-05 ± 5.2e-06 | – | – | – | – | – | – |
| A6C G40C | – | – | < 1e-05 | < 1e-05 | – | < 1e-05 | – |
| U57A G60U | < 1e-05 | < 1e-05 | < 1e-05 | – | < 1e-05 | < 1e-05 | – |
| U57G C58U C70U | 1.35e-05 ± 3.4e-06 | < 1e-05 | – | – | – | – | – |
| A6G C16G C67G | – | – | – | – | – | < 1e-05 | – |
| C58A C67U | 0.000215 ± 1.7e-05 | – | 6.4e-05 ± 1e-05 | 0.000161 ± 2e-05 | 0.000182 ± 1.7e-05 | – | 1370 ± 290 |
| G7C G37U U47C G59U G66U C70U | – | < 1e-05 | – | – | < 1e-05 | < 1e-05 | – |

| Variant | kcat [1] [s⁻¹] | self-cleavage kobs at 160 uM GlcN6P [2] [s⁻¹] | self-cleavage kobs at 640 uM GlcN6P [3] [s⁻¹] | self-cleavage kobs at 2500 uM GlcN6P [4] [s⁻¹] | self-cleavage kobs at 10000 uM GlcN6P [5] [s⁻¹] | self-cleavage kobs at 40 uM GlcN6P [6] [s⁻¹] | KM [7] [µM] |
| --- | --- | --- | --- | --- | --- | --- | --- |
| C16U U55G C68U | – | 0.000342 ± 0.00016 | 0.00106 ± 0.0003 | 0.00118 ± 0.00028 | 0.00354 ± 0.00087 | 0.000134 ± 2.4e-05 | 507 ± 230 |
| G7A A12G U47A | – | – | – | < 1e-05 | – | < 1e-05 | – |
| G7C A12G C67A | – | – | – | – | < 1e-05 | < 1e-05 | – |
| A6G G60A U65G | – | – | – | – | < 1e-05 | < 1e-05 | – |
| C61A C70U | 1.28e-05 ± 2.9e-06 | – | – | – | – | – | – |
| C61A C70G | 1.68e-05 ± 3.8e-06 | – | – | – | – | – | – |
| C61A C70A | < 1e-05 | < 1e-05 | – | – | – | < 1e-05 | – |
| A6C A36C | – | < 1e-05 | – | – | < 1e-05 | < 1e-05 | – |
| A64G C70G | 5.51e-05 ± 2.1e-06 | – | 4.33e-05 ± 1.6e-05 | – | 5.41e-05 ± 8.6e-06 | < 1e-05 | 224 ± 79 |
| G66C C70G | 0.000116 ± 4e-06 | 3.35e-05 ± 1.2e-05 | 6.38e-05 ± 8.2e-06 | 9.88e-05 ± 1.2e-05 | 0.000111 ± 1.5e-05 | – | 490 ± 56 |
| A6G G13U | – | < 1e-05 | < 1e-05 | – | – | < 1e-05 | – |
| U69G C71G | 5.4e-05 ± 2.4e-05 | – | 9.05e-05 ± 1.6e-05 | 3.23e-05 ± 1.5e-05 | – | – | – |
| G44U U56C | – | – | – | – | – | – | 4890 ± 1500 |
| G62C U69A | 1.17e-05 ± 3.8e-06 | – | – | – | – | – | – |
| A6G U56A U65C | – | – | – | – | – | < 1e-05 | – |
| C68U | 0.00795 ± 0.003 | 0.000316 ± 1.2e-05 | 0.0015 ± 6.4e-05 | 0.00371 ± 0.00012 | – | 0.000113 ± 1.6e-06 | 2930 ± 1200 |
| A6U G13C A15U | – | – | – | – | < 1e-05 | < 1e-05 | – |
| U69A C71G | 3.77e-05 ± 9.7e-06 | – | 5.27e-05 ± 1.5e-05 | 4.01e-05 ± 9.2e-06 | – | – | – |
| A6U G32C | – | < 1e-05 | < 1e-05 | < 1e-05 | – | < 1e-05 | – |
| A6G U31A G44U C67G | – | – | < 1e-05 | – | – | < 1e-05 | – |
| C67U U69A | 4.62e-05 ± 6.3e-06 | – | 5e-05 ± 1.8e-05 | 4.79e-05 ± 1.1e-05 | 3.56e-05 ± 1.5e-05 | < 1e-05 | – |
| A6G C71A | – | < 1e-05 | – | – | – | < 1e-05 | – |
